Test results: PMC11297931, “Structural basis of Cdk7 activation by dual T-loop phosphorylation” (Nature Communications, 2024)

Columns and labels:
Mat1 (230-309) = molecular target: T1, Mat1 (230-309) (human, UniProt P51948); experiment: crystal structure; Cdk7/Cyclin H/Mat1(230-309) mixed 1:1 with VHH RD7-04, with 1 mM ADP/Mg2+; hanging drop, 0.1 M Hepes pH 7.0, PEG 6K/4K, 15 °C; 2.15 Å; settings: both partners purified
T1 construct: also called C-terminal fragment of Mat1; source: lysate pooled with GST-Cdk7/Cyclin H lysate; purified (MBPTrap, TEV, SEC, reverse MBP and GST); not shown: MBP, N-terminal, cleaved

[1] = molecular target: T2, wild-type Cdk7/Cyclin H binary complex, doubly phosphorylated (human, UniProt P50613 2-346; P51946 1-323, phosphoserine at 164; phosphothreonine at 170 | M1 acetylated); experiment: SPR; MBP-Mat1(230-309) (15 nM) captured by anti-MBP antibody amine-coupled to a CM5 chip; Cdk7/Cyclin H complexes as analyte, multi-cycle kinetics, up to 150 nM, association 180 s, dissociation 900 s; 25 °C; 10 mM HEPES pH 7.4, 150 mM NaCl, 0.05% Tween20; steady-state affinity fit; Biacore 8K; settings: both partners purified
T2 construct: Cyclin-dependent kinase 7 (Cdk7), human, residues 2-346; Cyclin H, human, residues 1-323; the SPR text names no tag; also called Cdk7/CycH; GST-Cdk7/Cyclin H; source: Sf9 (baculovirus), co-expressed from a single vector; purified (GSTrap, SEC); also in lysate (pooled with MBP-Mat1 lysate)

[2] = molecular target: T2, wild-type Cdk7/Cyclin H binary complex, …; experiment: cell-based or functional assay
[3] = molecular target: Cdk7(R167A)/Cyclin H binary complex (human, UniProt P50613 2-346; P51946 1-323, R167A); experiment: cell-based or functional assay
Cdk7(R167A)/Cyclin H binary complex, sequence (P50613 2-346 R167A, chain 1 of 2): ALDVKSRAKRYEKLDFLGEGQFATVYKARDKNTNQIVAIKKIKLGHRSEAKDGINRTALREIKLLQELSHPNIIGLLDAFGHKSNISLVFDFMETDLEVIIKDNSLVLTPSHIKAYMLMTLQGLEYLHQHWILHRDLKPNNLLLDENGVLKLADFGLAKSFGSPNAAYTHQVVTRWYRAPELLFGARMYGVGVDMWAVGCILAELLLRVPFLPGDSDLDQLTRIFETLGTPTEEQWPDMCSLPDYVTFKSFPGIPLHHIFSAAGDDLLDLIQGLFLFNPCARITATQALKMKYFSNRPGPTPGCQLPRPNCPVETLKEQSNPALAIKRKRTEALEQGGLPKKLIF
Cdk7(R167A)/Cyclin H binary complex, sequence (P51946 whole entry, chain 2 of 2): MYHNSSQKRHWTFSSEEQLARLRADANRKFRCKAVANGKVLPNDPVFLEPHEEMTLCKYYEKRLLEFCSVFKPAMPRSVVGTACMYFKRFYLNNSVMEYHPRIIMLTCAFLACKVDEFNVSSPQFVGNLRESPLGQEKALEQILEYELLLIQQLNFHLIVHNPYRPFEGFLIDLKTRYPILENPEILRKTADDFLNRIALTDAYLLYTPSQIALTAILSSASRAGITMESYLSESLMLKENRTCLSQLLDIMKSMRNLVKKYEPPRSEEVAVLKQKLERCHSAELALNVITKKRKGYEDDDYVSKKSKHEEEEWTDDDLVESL

T2 sequence (P50613 2-346, chain 1 of 2): as the sequence (P50613 2-346 R167A, chain 1 of 2) above, with A166R counted along it
T2 sequence (P51946 whole entry, chain 2 of 2, the tested form may be a part): as the sequence (P51946 whole entry, chain 2 of 2) above

Row | Binder | binding result (Mat1 (230-309)) | Kd [1] [nM] | stimulation of kinase activity by Mat1 addition, normalized to the complex without Mat1 (Fig. 3f) [2] [fold] | stimulation of kinase activity by Mat1 addition, normalized to the complex without Mat1 (Fig. 3f) [3] [fold]
1 | VHH_(RD7-04), form for co-crystallization (VHH, nanobody chain of the deposited structure PDB 8PYR; Expression construct pelB-His6-TEV-NB in a modified pET28a vector; also called nanobody VHH RD7-04; chaperoning nanobody; source: E. coli BL21 (DE3), periplasmic extract, purified (HisTrap, TEV, SEC, reverse Ni-NTA); not shown: His6, N-terminal, cleaved) VHH: QVQLVESGGGLVQPGGSLRLSCVASGFTFKNFYMGWVRQAPDKGLEWVATINSGGEIQSYADSVKGRFTISRDNAKNTLYLQMNNLRPEDTAVYYCSKQSSTPAKGQGTQVTVSS | binds |  |  | 
2 | MBP-Mat1_(230-309) (domain or fragment, human, UniProt P51948 230-309, looked up, source: Sf9 (baculovirus), expressed separately from Cdk7/Cyclin H; purified as an MBP fusion protein; also in lysate (pooled with GST-Cdk7/Cyclin H lysate); not shown: MBP, N-terminal, kept) GQHISLAPIHKLEEALYEYQPLQIETYGPHVPELEMLGRLGYLNHVRAASPQDLAGGYTSSLACHRALQDAFSGLFWQPS |  | 9.8 | ~10 | ~5
